To fix the notation:
B1: A119 (antibody, human IgG1, kappa, L234A L235A)
light: DIVMTQTPLSLSVSLGDQASISCKSSQSIVHYNEKTYLEWYLQKPGQSPQLLIYKVSSRASGVPDRFSGSGSGTDFTLKISRVEAEDLGVYYCFQGSHFPLTFGQGTKLEIKRTVAAPSVFIFPPSDEQLKSGTASVVCLLNNFYPREAKVQWKVDNALQSGNSQESVTEQDSKDSTYSLSSTLTLSKADYEKHKVYACEVTHQGLSSPVTKSFNRGEC
heavy: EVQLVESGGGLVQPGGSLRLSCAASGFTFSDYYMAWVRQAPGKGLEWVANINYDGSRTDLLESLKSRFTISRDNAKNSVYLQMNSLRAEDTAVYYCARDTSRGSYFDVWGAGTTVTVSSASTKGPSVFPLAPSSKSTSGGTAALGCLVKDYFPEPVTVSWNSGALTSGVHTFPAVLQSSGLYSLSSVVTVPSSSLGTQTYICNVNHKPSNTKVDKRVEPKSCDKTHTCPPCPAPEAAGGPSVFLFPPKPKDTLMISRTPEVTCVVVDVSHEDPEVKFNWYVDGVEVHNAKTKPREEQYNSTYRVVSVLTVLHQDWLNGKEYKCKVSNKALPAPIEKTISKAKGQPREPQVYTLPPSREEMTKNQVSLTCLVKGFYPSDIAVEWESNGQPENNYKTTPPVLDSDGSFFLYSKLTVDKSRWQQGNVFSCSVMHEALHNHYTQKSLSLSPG
B2: A120 (antibody, human IgG1, kappa, L234A L235A)
light: B1 light
heavy: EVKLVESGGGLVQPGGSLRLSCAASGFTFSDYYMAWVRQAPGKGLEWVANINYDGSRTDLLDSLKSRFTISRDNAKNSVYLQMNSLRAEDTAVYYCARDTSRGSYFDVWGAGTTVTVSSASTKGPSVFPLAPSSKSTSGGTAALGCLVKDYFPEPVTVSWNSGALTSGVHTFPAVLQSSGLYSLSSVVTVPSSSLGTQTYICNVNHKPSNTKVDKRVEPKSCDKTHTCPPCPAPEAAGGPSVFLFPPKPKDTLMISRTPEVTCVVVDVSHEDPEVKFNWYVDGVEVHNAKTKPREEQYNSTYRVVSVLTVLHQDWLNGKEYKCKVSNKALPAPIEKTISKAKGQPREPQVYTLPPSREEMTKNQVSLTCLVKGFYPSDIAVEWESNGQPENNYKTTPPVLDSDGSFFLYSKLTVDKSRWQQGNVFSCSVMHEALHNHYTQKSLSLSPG
B3: A13 (antibody, human IgG1, kappa, L234A L235A)
light: VVMTQTPLSLSVSLGDQASISCKSSQSIVHYNEKTYLEWYLQKPGQSPQLLIYKVSSRASGVPDRFSGSGSGTDFTLKISRVEAEDLGVYYCFQGSHFPLTFGQGTKLEIKRTVAAPSVFIFPPSDEQLKSGTASVVCLLNNFYPREAKVQWKVDNALQSGNSQESVTEQDSKDSTYSLSSTLTLSKADYEKHKVYACEVTHQGLSSPVTKSFNRGEC
heavy: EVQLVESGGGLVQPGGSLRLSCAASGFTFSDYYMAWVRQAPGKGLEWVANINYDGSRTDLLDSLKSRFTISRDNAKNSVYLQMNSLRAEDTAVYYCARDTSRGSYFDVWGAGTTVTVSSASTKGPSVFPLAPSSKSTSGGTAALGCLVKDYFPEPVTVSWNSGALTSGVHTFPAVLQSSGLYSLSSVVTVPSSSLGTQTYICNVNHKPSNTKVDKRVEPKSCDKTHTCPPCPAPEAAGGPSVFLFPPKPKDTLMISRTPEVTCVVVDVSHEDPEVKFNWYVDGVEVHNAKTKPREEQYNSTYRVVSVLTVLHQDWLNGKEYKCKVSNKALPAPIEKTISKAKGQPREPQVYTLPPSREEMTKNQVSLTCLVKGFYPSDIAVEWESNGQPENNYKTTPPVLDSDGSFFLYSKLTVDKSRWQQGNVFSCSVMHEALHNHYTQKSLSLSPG
notes: also called antibody A13
B4: Antibody A97 (antibody, human IgG1, kappa, L234A L235A)
light: B3 light with E33G, K34N
heavy: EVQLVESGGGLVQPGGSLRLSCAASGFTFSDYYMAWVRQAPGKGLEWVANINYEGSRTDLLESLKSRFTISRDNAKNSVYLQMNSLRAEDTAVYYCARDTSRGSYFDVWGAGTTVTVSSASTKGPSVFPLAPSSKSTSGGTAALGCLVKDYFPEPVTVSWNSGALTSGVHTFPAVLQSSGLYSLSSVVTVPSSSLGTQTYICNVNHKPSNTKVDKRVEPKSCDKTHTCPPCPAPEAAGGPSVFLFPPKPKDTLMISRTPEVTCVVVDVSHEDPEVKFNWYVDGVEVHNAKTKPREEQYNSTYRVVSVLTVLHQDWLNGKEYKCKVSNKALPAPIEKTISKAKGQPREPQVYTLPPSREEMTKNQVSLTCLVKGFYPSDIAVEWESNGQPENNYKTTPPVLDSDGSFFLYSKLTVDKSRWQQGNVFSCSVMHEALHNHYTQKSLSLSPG
notes: also called Antibody 97
B5: Antibody H2 (antibody, human IgG1, kappa, V domains shown)
VH: EVQLVESGGGLVQPGGSLRLSCAASGFSFNTYAMNWVRQAPGKGLEWVARIRTKSNNYATYYADSVKDRFTISRDDSESSLYLQMNSLKTEDTAVYYCVETGFAYWDQGTLVTVSS
VL: EIVLTQSPATLSLSPGERATLSCSASSSVSYMHWFQQKPGQSPKLWIYSTSNLASGVPARFSGSGSGTDYTLTISSLEPEDFAVYYCQQRSSYPLTFGQGTKLEIKR
notes: Comparator anti-CTGF antibody, full length
B6: Antibody H1 (antibody, human IgG1, lambda, V domains shown)
VH: EVTLKESGPVLVKPTETLTLTCTVSGFSLSTFGVHWIRQPPGKGLEWLGVIWRRGGTDYNAAFMSRLTISKDTSKSQVVFTMTNMDPVDTATYYCARDGGFDYWGQGTTVTVSS
VL: ETVVTQEPSLTVSPGGTVTLTCRSSIGAVTTSNYANWVQQKPGQAFRGLIGGTSNRAPWTPARFSGSLLGGKAALTLSGVQPEDEAEYYCALWYSTHYVFGGGTKLTVLG
notes: as for B5
B7: Antibody F1 (antibody, V domains shown)
VH: EGQLVQSGGGLVHPGGSLRLSCAGSGFTFSSYGMHWVRQAPGKGLEWVSGIGTGGGTYSTDSVKGRFTISRDNAKNSLYLQMNSLRAEDMAVYYCARGDYYGSGSFFDCWGQGTLVTVSS
VL: DIQMTQSPSSLSASVGDRVTITCRASQGISSWLAWYQQKPEKAPKSLIYAASSLQSGVPSRFSGSGSGTDFTLTISSLQPEDFATYYCQQYNSYPPTFGQGTKLEIKR
notes: as for B5

Where a chain is given by its changes, count along the chain named. Where “and” joins values, the source holds several entries; their conditions need not be identical. Identical values can stand only once.

These results are taken from patent publication US20250277020A1 (Boehringer Ingelheim, published 2025).

Broadly, the Kd is the free concentration of one partner at which half of the binding sites on the other are occupied at equilibrium, for simple one-to-one binding. Low values mean higher affinity, high ones lower affinity. By koff is commonly meant the first-order rate constant of dissociation. Usually kon stands for a measure of how fast the partners come together. Lower therefore signals slower complex formation.

The target of the first experiment is T1, Full-length human CTGF (human, UniProt P29279 27-349).
T1 construct: Corresponds to NCBI NP_001892.1 with the signal peptide omitted; purchased from R&D Systems; also called hCTGF full length; full length CTGF
T1 sequence: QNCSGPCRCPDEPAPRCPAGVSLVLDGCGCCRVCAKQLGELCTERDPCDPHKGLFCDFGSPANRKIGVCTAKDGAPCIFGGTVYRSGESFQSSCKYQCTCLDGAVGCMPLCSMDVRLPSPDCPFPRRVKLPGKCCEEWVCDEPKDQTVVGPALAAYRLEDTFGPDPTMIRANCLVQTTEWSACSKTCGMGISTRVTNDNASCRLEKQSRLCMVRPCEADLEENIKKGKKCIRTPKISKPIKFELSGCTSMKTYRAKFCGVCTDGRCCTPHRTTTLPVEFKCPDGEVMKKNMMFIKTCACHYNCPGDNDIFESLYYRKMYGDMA
Description: SPR, full length CTGF. A general note: Surface plasmon resonance follows binding to a sensor surface in real time, without labels.
In turn, B1 gave a Kd of 0.91 nM.

Consider B2, for which the affinity, expressed as Kd, was 0.84 nM.

The molecule B3 had an equilibrium dissociation constant (Kd) of 0.25 nM.

Another experiment has as its target T2, Human N-terminal fragment of CTGF (CTGF-NTF) (human, UniProt P29279 27-180).
T2 construct: Recombinantly expressed; also called hCTGF NTF; CTGF N-terminal fragment
T2 chain: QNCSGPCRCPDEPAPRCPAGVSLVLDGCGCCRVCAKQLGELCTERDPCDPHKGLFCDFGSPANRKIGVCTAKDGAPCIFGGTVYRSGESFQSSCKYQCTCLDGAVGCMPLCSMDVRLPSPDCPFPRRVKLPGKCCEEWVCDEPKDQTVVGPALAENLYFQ
Description: SPR Biacore 8K+, mAb captured on Protein A/G, hCTGF NTF as analyte. As to the method:
(§1) Binding affinity of anti-CTGF antibodies H1 (having the light chain of SEQ ID NO: 22 and the heavy chain of SEQ ID NO: 23), H2 (having the light chain of SEQ ID NO: 24 and the heavy chain of SEQ ID NO: 25), F1, and A97 for full length human CTGF or human CTGF N-terminal fragment are determined by surface plasmon resonance (SPR).
(§2) Surface plasmon resonance is conducted using a Biacore 8K+ (Cytiva). Protein A/G (Thermo Scientific) is amine coupled to CM5 Sensor S Chip (Cytiva). For binding to hCTGF N-terminal fragment (NTF), anti-CTGF antibody (1 μg/ml) is captured on the Protein A/G surface, followed by various concentrations of antigen (100 nM to 0.78 nM; 2-fold dilutions). For binding to hCTGF full length, anti-CTGF antibody (0.2 μg/ml) is captured followed by various concentrations of antigen (10 nM to 0.156 nM; 2-fold dilutions).
Regarding B4, binding was put at a Kd of 0.14 nM, the koff was determined as 4e-05 s⁻¹ and the kon was determined as 290000 M⁻¹ s⁻¹.

Consider B5, for which the dissociation constant (Kd) is 45.7 nM and 46 nM; the koff was found to be 0.0175 s⁻¹; the kon was determined as 383000 M⁻¹ s⁻¹.

In the case of B6, the Kd is 8.82 nM and 8.8 nM; the koff was 0.0107 s⁻¹; the kon came out at 1.22e+06 M⁻¹ s⁻¹.

On to B7, for which the dissociation constant Kd is 30.3 nM and 30 nM; the koff is 0.0105 s⁻¹; the kon worked out at 345000 M⁻¹ s⁻¹.

The target in the next experiment is T1, Full-length human CTGF. The experiment can be described thus: SPR, full length CTGF; Table 15 screen of humanized variants, SPR on full length CTGF. Summed up: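 Humanized antibody variants were made by co-expressing each of eight heavy-chain variable-region variants with each of sixteen light-chain variable-region variants in CHO cells, giving 128 combinations. Binding affinity (Kd) of each combination for full-length human CTGF was determined by surface plasmon resonance. The text gives no instrument, chip, concentrations, temperature, buffer, replicates or fitting model for this measurement.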
With B4, the equilibrium dissociation constant (Kd) was found to be 0.14 nM.

A further experiment concerns the target T1, Full-length human CTGF. The experiment can be described thus: SPR Biacore 8K+, mAb captured on Protein A/G, full length hCTGF as analyte. Here is the method:
as §1, §2
In the case of B4, binding was characterised by a dissociation constant (Kd) of 0.0018 nM, the koff turned out to be 4.8e-06 s⁻¹ and the kon is 2.7e+06 M⁻¹ s⁻¹.

Turning to B5, the Kd was 0.554 nM and 0.55 nM; the koff was determined as 0.00149 s⁻¹; the kon stood at 2.7e+06 M⁻¹ s⁻¹.

For the molecule B6, the Kd was 0.0983 nM and 0.098 nM; the koff was determined as 0.000671 s⁻¹; the kon is 6.83e+06 M⁻¹ s⁻¹.

With B7, the Kd is 0.247 nM and 0.25 nM; the dissociation rate constant (koff) turned out to be 0.00337 s⁻¹; the kon amounted to 1.37e+07 M⁻¹ s⁻¹.
